Consider 1 substance from PMC10053502.

In this test the target is S. pneumoniae DNA topoisomerase I (TopoI), purified (S. pneumoniae).

“histidine-tagged StaR (H6-StaR), product of spr0929 of Streptococcus pneumoniae R6 (natural protein)” displayed a relaxation of pBR322 by TopoI in vitro (37 °C, 1 h) with increasing StaR concentrations; percent of topoisomers (including OC/RC forms) at the highest StaR concentration (CCC form fell to 2.5%) of 97.5%.
